Reference: the DeepSol protein solubility set

Experiment: soluble on expression in E. coli; label from the status in PepcDB or PDB records

Sequence | soluble on expression in E. coli
MGPAHKARDDGEGGWSMNSHPPLSVQTLNTLDRKAFTTALHFAFELSPWVVERAWDARPFASVETMHAAMMAVLDAASTADKLALIRAHPELAGKAAIAKQLTAESNAEQASAGLDKLTPDEFARFHALNAAYNTRFGFPFIICVRLNDKASILEAMAARLSNDEASEIAQAITQIGLISKLRLLDAVTHLEHHHHHH | not soluble
MGKKELKRGLVVDREAQMIGVYLFEDGKTYRGIPRGKVLKKTKIYAGDYVWGEVVDPNTFAIEEVEERKNLLIRPKVANVDRVIIVETLKMPEFNNYLLDNMLVVYEYFKVEPVIVFNKIDLLNEEEKKELERWISIYRDAGYDVLKVSAKTGEGIDELVDYLEGFICILAGPSGVGKSSILSRLTGEELRTQEVSEKTERGRHTTTGVRLIPFGKGSFVGDTPGFSKVEATMFVKPREVRNYFREFLRYQCKYPDCTHTNEPGCAVKEAVKNGEISCERYKSYLKIIKVYLEEIKELCRED | soluble
MDNSGKEAEAMALLAEAERKVKNSQSFFSGLFGGSSKIEEACEIYARAANMFKMAKNWSAAGNAFCQAAQLHLQLQSKHDAATCFVDAGNAFKKADPQEAINCLMRAIEIYTDMGRFTIAAKHHISIAEIYETELVDIEKAIAHYEQSADYYKGEESNSSANKCLLKVAGYAALLEQYQKAIDIYEQVGTNAMDSPLLKYSAKDYFFKAALCHFCIDMLNAKLAVQKYEELFPAFSDSRECKLMKKLLEAHEEQNVDSYTESVKEYDSISRLDQWLTTMLLRIKKTIQGDEEDLR | soluble
MEIARKVMEEFLEIWNEALAKRSLPGKFVNKDLNFGEFGLGDNYTPQHTAVRNYALVMAHMIATVQAVSG | not soluble
MSLGMKSNEYNKGNYEAHKAYYAGTYEYGTDYDVEDDLYSLEFDDELLNDELEYLEDIGEPFYYEDLDNDFDNTLENQVEKDTYAALENKLRKYISKYNCYFGIYFVDLESGKEFGINDTEEFFAASTFKIPLNLYVYDMIRKGMLDPMTSLEYTEEDFEGGTGIIWNNESFGKTFTIKELLRLSIVYSDNVAVNMLLRCVGKANVKEYMRRLGGVVVDDGKNVSCPRDMAMYLKEVYELSENGDPWGRELVQNMINTKFYDRLPVLLPKNLKIAHKTGNYTGVVHDVGIVYAEKPYIVVVMTKNVKNGQSANKAIANISKMIYDYVVKQSGKDEGHHHHHH | soluble
MSVSRYPVAIAGAGPAGSALALALQAQGVEALLLDRPLAQPFRIGESATPDVAGLLERLGAGHALDGQPGYHGNLSLWGSESPRLDHFLYRGRGHGWHLDRAGFDHALRQEAMARGVAVLGESGVDAIAPAAGGWRLRVRGLGEVEARVVVDAGGRRSPLAARLGISRCRLDRLQALACRVDGPGQLSGYSLVESAPYGWWYAAALPDGRALATLMTDQDLARELGLEHPANFLAAWRATRLLSERLPPPQRIDAAHAFAAHSGCVARAAGPGWICVGDALMGLDPLTSSGIACALGDALAAAPAIVAMLDGELAPARAYAKRADDCFRRYLAERRRHYRQENRWPEQPFWQRRAFSPAALAVPALEHHHHHH | not soluble
MQPLVSVLICAYNVEKYFAQSLAAVVNQTWRNLDILIVDDGSTDGTPAIARRFQEQDGRIRIISNPRNLGFIASLNIGLDELAKSGGGGEYIARTDADDIASPGWIEKIVGEMEKDRSIIAMGAWLEVLSEENNKSVLAAIARNGAIWDKPTRHEDIVAVFPFGNPIHNNTMIMRRSVIDGGLRFDPAYIHAEDYKFWYEAGKLGRLAYYPEALVKYRFHQDQTSSKYNLQQRRTAWKIKEEIRAGYWKAAGIAVGADCLNYGLLKSTAYALYEKALSGQDIGCLRLFLYEYFLSLEKYSLTDLLDFLTDRVMRKLFAAPQYRKILKKMLRPWKYRSYLEHHHHHH | not soluble
MSLEQFNVWFTVSEVQGLVKSGGLADVAKALPQALKALHQQVAIALPAYRSVPGKEDAELVLETELTHWPHTQYRVLKRDLDGVPIYLIDCPAYFDRPALYAENNQAYADNGERFGFFSAACLDVLPKLGIQPDIIHANDWHTGLVPFLLKTRYRYDSFFEQVKSVLTVHNAIFKGIFSYHQLEVIPELNLSGMEFLQYGHDHVSMLRAGIAFADKVNAVSPNYAAELLTPLGAHGLVDDFVRRARDLHGIVNGCDYSEWNPRTDHYLPATYSDEPESMRKGKALCKTALQEELHLPVTDVPLFGMVCRLTHQKGFHYLLPILEQFLRNNVQVVIVGTGEPEVAARLNKIAHYHRAKFAFVETYSERLAHWVEAGSDFFLMPSEFEACGLNQIYSMAYGTLPIVREVGGLKDTVNDYDKFPERATGFGYQEPTPEALLITMQRALLFYLQQPEEMLKVQQRAMQQNFSWEESAQEYMKMYRLARFEGHHHHHH | soluble
MKITNPVLKGFNPDPSICRAGEDYYIAVSTFEWFPGVQIHHSKDLVNWHLVAHPLQRVSQLDMKGNPNSGGVWAPCLSYSDGKFWLIYTDVKVVDGAWKDCHNYLVTCETINGDWSEPIKLNSSGFDASLFHDTDGKKYLLNMLWDHRIDRHSFGGIVIQEYSDKEQKLIGKPKVIFEGTDRKLTEAPHLYHIGNYYYLLTAEGGTRYEHAATIARSANIEGPYEVHPDNPILTSWHDPGNPLQKCGHASIVQTHTDEWYLAHLTGRPIHPDDDSIFQQRGYCPLGRETAIQKLYWKDEWPYVVGGKEGSLEVDAPSIPETIFEATYPEVDEFEDSTLNINFQTLRIPFTNELGSLTQAPNHLRLFGHESLTSTFTQAFVARRWQSLHFEAETAVEFYPENFQQAAGLVNYYNTENWTALQVTHDEELGRILELTICDNFSFSQPLNNKIVIPREVKYVYLRVNIEKDKYYYFYSFNKEDWHKIDIALESKKLSDDYIRGGGFFTGAFVGMQCQDTGGNHIPADFRYFRYKEK | soluble
WSGVMEWQEPRPEPNSRSKRWLPSHVYVNQGEILRTEQWPRKLYMQLIPQQLLTTLVPLFRNSRLVQFHFTKDLETLKSLCRIMDNGFAGCVHFSYKASCEIRVLMLLYSSEKKIFIGLIPHDQGNFVNGIRRVIANQQQVLQRNLEQEQQQRGMGG | not soluble
MISCFNRQCPTGTISYTVRAGDTLYLIAGRFNTTVEAILAANPGIVPERLYIGQVICVPYAQPPQPACPIGTSPYEIKSGDTLSKIAAKFNTTVGDILNANPGIIPEKLYVGQKICIPQPKSENPGCPTMNYYVIQKGDTLPAIAKIFNVTVQQLINANPGINPNALYVGQVICIPVAPSSVRIIVSIAAKTLSLYRDGRLVKSYPVATGKPTTPTPRGTFTIINKQVNPGGPFGTRWMGLSQPHYGIHGTNNPASIGTAASNGCIRMYNEDVNELFNLVSVGTPVTIY | soluble
MSLKAAVYEGKKAIKMTELPTPKAGPNDVVIQNIYAGICGSDVAVYNHGSGTGHKIETDHEFGHEAVSKVVEVGDDVHDFKIGDRVYPYPLLARGDPSRAGSMGGFSEYILIPNAKLNRQLYLVPKEIDNHVAAMIEPFTVGTRAAKQTRPDKNDNAIVYGTGTIGMAAAVALKHLGVKQVMLVDLSDYRLNVAKELGFLTVNSSRDDVRSQAIEAFGKAEYSLHGEAPDTQIFLDAAGHNSILEDFLQFGPVGSRFVTVGVNNSKPQIDFLELIFGSKSVGGSGGYRPEDVQTVFEIMKERQSDLRKMVSQEFDWQDLEKGIQTATDTTISEKVLINYHEGHHHHHH | soluble
MSLLIDFIDETEEVKEEYMSLIREVLEKAAQMENIEDGAEVSVTFVDNERIREINRDYRDKDQPTDVISFAMEEMGEGEMEIVGAEMPRMLGDLIISIPRAKEQAEEYGHSFDRELGFLALHGFLHLLGYDHMTEEDEKEMFGRQKEILEAFGLGR | not soluble
MSLSGNYLPRNTLVESLGHAMLKLSGWKIEGQLPALDKFVVIGAHHTSNWDFVAFLAAKFVLRLNARWFGKHTLFNGPLGGLMRRWGGIPIQRHLKLNTVDQAIQAFREHREFMLIIAPEGTRKKVDRWRMGFYHIARGAGVPVVPAALDYENRRIVIGEPFWPTGNEDADLCSLIGFYRPFIPKKPHYAFLGDEGHHHHHH | soluble
SYSSAFAQAASSSLATSSAISRAFASVSSASAASSLAYNIGLSAARSLGIASDTALAGALAQAVGGVGAGASASAYANAIARAAGQFLATQGVLNAVNASSLGSALANALSDSAANSAVSGNYLGVSQN | soluble
MGSDKIHHHHHHMIDFSLCEVNKFRAYGGANGNKINILYEGNSYMLKFSPVPSRNKAMSYTNGCISEYLACHIFASLGFKTQETLLGTYTDPRGKEKVVVACGDFTEGGKRLIEFAHLKNTCISSEQNGYGKELSSIMQAIDEQMLLPPDQLRDFFWDMFIADALLGNFDRHNGNWGILVDEQSKTAEIAPVYDCGSCLYPQLAAKDMGDVLNSEDEIDRRVYVFPTSSIEEDGKKISYFEFISSLRNPDCTAALKRVSARIDMEKIRMLIDKTPTLLPVQKEFYTVIISERKAKIIDYSMEKLMKLKGQDLERDEQQNGGLQFTM | not soluble
MTNSNRRKFLKATGVGLLGGLAGCTRGGDSSGGDGSDGSSDGSDGSGGSDGGTSTSGSDGELAIPLSEYEDADIDWRQFEGSSINIGAVQHPWVSAIKPAVPVFEELTGIDVVWNVLPEQQFRTKRQTDVSTGAGQFDVFYMDQVVNQFREEGWIQPLDPFFDDDSLFDEDWYEPDDLFEASRWQAHGGGYSDTWTGMPITVEVQTQFYRKDLYDKHDLEVAETLEQFRQNAQTIHENESDVVGTVGRGDKGYGMNIYILNTFLREFGTSLWTEFPTDSGLDSDGVINAAEWYVSLLQDYGPEGASTQTWSDVLSTMQEGRAGHIVSDANLFWPGLTGSDSSVADNIGIAKAPSPADGQFSPNAFNWQISTSKNAQNSEQAFLFMVWASSQPTNTWMHVEGDAAFSVRQSVWENDEFRSRVGENFAQVTLESLQEAAPDPFDRKYPQWGQRYSEELQRAIAGQKSAEEAMTKAASVAEDIYSN | not soluble
MALSEQSKDLSDPNFAAEAPNSEVHSSPGVSEGVPPSATLAEPQSPPLGPTAAPQAAPPPQAPNDEGDPKALQQAAEEGRAHQAPSAAQPGPAPPAPAQLVQKAHELMWYVLVKDQKKMIIWFPDMVKDVIGSYKKWCRSILRRTSLILARVFGLHLRLTSLHTMEFALVKALEPEELDRVALSNRMPMTGLLLMILSLIYVKGRGARESAVWNVLRILGLRPWKKHSTFGDVRKLITEEFVQMNYLKYQRVPYVEPPEYEFFWGSRASREITKMQIMEFLARVFKKDPQAWPSRYREALEEARALREANPTAHYPRSSVSEGHHHHHH | soluble
MELSDSKVIAADRATVWAALLSPEVLKECVPGCQEMSGSPDEGFEATVVQKVGPVKATFKGGVTLSEMVAPESLTLSGEGKGGAAGFAKGAARVRLEEGADGTTILSYEVEAKVGGKLAQLGSRIIDGFARKMADQFFTRFQEVLEGPGEAESPEAEASGDAKKKGWFKRVISGLEHHHHHH | soluble
MINIVIPMAGAGSRFAQAGYKKPKPFIDVLGRPMICHVLDNLNMPDARFILLTRKEHFENEQETVNWIKSKYNVEFVLIDNLTEGAACTVLHAHKLIDNNTPLLIANSDQIVDMNIAEFINDSENRNLDGSVLCFKDHDTKWSYAKIDGEGLITEIREKVVISEFATVGIYYFAKGGFFVKNAIDMIIRNERVKNEFYVAPVYNFGIQEGLKFGIFNININQMHGIGTPTDLNVYIDLVQRNKLEHHHHHH | soluble
MAVVFKKTEGLQDTQTHYCPGCTHGIIHRLVGEVLEELGVLGDAVGVVPVGCSVLGYKYFNCDTQEAAHGRAPAAATGIKRVHPENTVFTYQGDGDLASIGTAEIVHAAARGEKITTIFVNNTTYGMTGGQMAPTTLVGQRATTAQSGRNAETQGYPIRVSEMLATLTGAVFVERVAVDTPAHVRQAKKAIKKAFQVQQAGLGFGIVEVLSTCPTNWGLAPNDALQWLRDNMIPYYPLGNFKNVEVEEVK | not soluble
